Test results as given in the supplement of paper PMC9233669.
Fewer inactive variants are shown than the library holds.

How the values were obtained:
[1] = tested on: biotinyl-Val-oxazolone; assay: self-aminoacylation, catalytic enhancement (BVO) (fold over background); higher = more active; k-Seq, kA / k0A0; sequences stand for … in GGGAAUGGAUCCACAUCUACGAAUUC…UUCACUGCAGACUUGACGAAGCUG
How it was run: (§1)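 Catalytic enhancement equals the median kA over the uncatalyzed rate, the latter read from the low-activity peak of a bimodal Gaussian fit. Values of kA came from fitting each sequence's fraction reacted to a pseudo-first-order model, with 1000 bootstraps. Reacted RNA was captured with streptavidin and quantified by triplicate qPCR and Illumina sequencing after 90 minutes at room temperature with 2–1250 μM biotinyl-aminoacyl-oxazolone and 0.43 μM mutagenized RNA pools bearing a 21-nt variable region.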

[2] = tested on: biotinyl-Leu-oxazolone; assay: self-aminoacylation, catalytic enhancement (BLO) (fold over background); higher = more active; k-Seq, kA / k0A0; sequences stand for … in GGGAAUGGAUCCACAUCUACGAAUUC…UUCACUGCAGACUUGACGAAGCUG
How it was run: as §1

[3] = tested on: biotinyl-Ile-oxazolone; assay: self-aminoacylation, catalytic enhancement (BIO) (fold over background); higher = more active; k-Seq, kA / k0A0; sequences stand for … in GGGAAUGGAUCCACAUCUACGAAUUC…UUCACUGCAGACUUGACGAAGCUG
How it was run: as §1

[4] = tested on: biotinyl-Met-oxazolone; assay: self-aminoacylation, catalytic enhancement (BMO) (fold over background); higher = more active; k-Seq, kA / k0A0; sequences stand for … in GGGAAUGGAUCCACAUCUACGAAUUC…UUCACUGCAGACUUGACGAAGCUG
How it was run: as §1

[5] = tested on: biotinyl-Trp-oxazolone; assay: self-aminoacylation, catalytic enhancement (BWO) (fold over background); higher = more active; k-Seq, kA / k0A0; sequences stand for … in GGGAAUGGAUCCACAUCUACGAAUUC…UUCACUGCAGACUUGACGAAGCUG
How it was run: as §1

[6] = tested on: biotinyl-Phe-oxazolone; assay: self-aminoacylation, catalytic enhancement (BFO) (fold over background); higher = more active; k-Seq, kA / k0A0; sequences stand for … in GGGAAUGGAUCCACAUCUACGAAUUC…UUCACUGCAGACUUGACGAAGCUG
How it was run: as §1

Sequence | self-aminoacylation [1] | self-aminoacylation [2] | self-aminoacylation [3] | self-aminoacylation [4] | self-aminoacylation [5] | self-aminoacylation [6]
AUUAACCUAGGUAAUCGGGUG [Fam2.2 aminoacylation ribozyme variant] | 1.66 | 2.3 | 1.78 | 2.62 | 2.42 | 12.5
AUUAACCUAGGUCACCGGGUG [Fam2.2 aminoacylation ribozyme variant] | 3.13 | 4.52 | 3.19 | 4.09 | 5.15 | 23.6
AUUAACCUAGGUCAGCGGGUG [Fam2.2 aminoacylation ribozyme variant] | 2.12 | 4.4 | 2.5 | 2.59 | 2.72 | 19
AUUAACCUAGGUCAUAGGGUG [Fam2.2 aminoacylation ribozyme variant] | 1.36 | 1.74 | 1.29 | 1.41 | 2.08 | 1.19
AUUAACCUAGGUCAUCAGGUG [Fam2.2 aminoacylation ribozyme variant] | 1.48 | 1.47 | 1.24 | 1.35 | 1.43 | 1.4
AUUAACCUAGGUCAUCGGGUU [Fam2.2 aminoacylation ribozyme variant] | 4.78 | 12.7 | 5.18 | 9.3 | 6.05 | 40.5
AUUAACCUAGGUCAUCGGUUG [Fam2.2 aminoacylation ribozyme variant] | 1.09 | 1.19 | 1.02 | 1.07 | 1.05 | 3.47
AUUAACCUAGGUCAUGGGGUG [Fam2.2 aminoacylation ribozyme variant] | 2.38 | 4.82 | 2.28 | 3.3 | 3.44 | 22.6
AUUAACCUAGGUCAUUGGGUG [Fam2.2 aminoacylation ribozyme variant] | 2.28 | 3.23 | 1.93 | 2.88 | 2.85 | 15.2
AUUAACCUAUGUCAUCGGGUG [Fam2.2 aminoacylation ribozyme variant] | 3.13 | 6.82 | 3.43 | 5.3 | 5.05 | 36
AUUAACCUCGGUCAUCGGGUG [Fam2.2 aminoacylation ribozyme variant] | 3.76 | 5.54 | 3.13 | 5.08 | 3.74 | 28.5
AUUAACCUGGUCAACGAGUGA [Fam2.1 aminoacylation ribozyme variant] | 2.85 | 5.45 | 2.78 | 5.37 | 6.7 | 22.5
AUUAACCUGGUCAUCCAGUGA [Fam2.1 aminoacylation ribozyme variant] | 2.56 | 4.45 | 2.38 | 4.16 | 5.64 | 18.6
AUUAACCUGGUCAUCGAGUGA [Fam2.1 aminoacylation ribozyme variant] | 4.02 | 7.64 | 3.97 | 7.3 | 8.57 | 8.46
AUUAACCUGGUCAUCGAGUGC [Fam2.1 aminoacylation ribozyme variant] | 1.1 | 1.18 | 0.994 | 1.25 | 0.854 | 0.898
AUUAACCUGGUCAUCUAGUGA [Fam2.1 aminoacylation ribozyme variant] | 4.53 | 9.7 | 4.57 | 9.41 | 11.1 | 52.4
AUUAACCUGGUCAUGGAGUGA [Fam2.1 aminoacylation ribozyme variant] | 2.02 | 3.54 | 2.45 | 4.08 | 4.5 | 9.66
AUUAACCUUGUCAUCGAGUGA [Fam2.1 aminoacylation ribozyme variant] | 3.39 | 6.72 | 3.25 | 6.16 | 7.59 | 17.6
AUUAACUUAGGUCAUCGGGUG [Fam2.2 aminoacylation ribozyme variant] | 2.59 | 4.73 | 2.79 | 4.59 | 4.85 | 28.7
AUUAAGCUAGGUCAUCGGGUG [Fam2.2 aminoacylation ribozyme variant] | 3.77 | 5.1 | 3.11 | 3.88 | 4.85 | 34.3
AUUACACUGGUCAUCGAGUGA [Fam2.1 aminoacylation ribozyme variant] | 3.09 | 5.86 | 3.17 | 5.44 | 6.94 | 19.7
AUUACACUGGUCAUCGCGUGA [Fam2.1 aminoacylation ribozyme variant] | 7.07 | 14.4 | 6.84 | 12.6 | 14.6 | 102
AUUACACUGGUCAUCGUGUGA [Fam2.1 aminoacylation ribozyme variant] | 1.56 | 2.8 | 1.75 | 3.15 | 3 | 13.8
AUUACACUGGUCCUCGAGUGA [Fam2.1 aminoacylation ribozyme variant] | 2.32 | 4.8 | 2.72 | 5.17 | 5.79 | 23.4
AUUACACUUGUCAUCGAGUGA [Fam2.1 aminoacylation ribozyme variant] | 2.59 | 4.35 | 2.51 | 4.21 | 5.31 | 11.4
AUUACCAAGGUCAUCGAGUGA [Fam2.1 aminoacylation ribozyme variant] | 3.96 | 8.44 | 3.64 | 7.64 | 9.76 | 43.2

Sequence | self-aminoacylation [1] | self-aminoacylation [2] | self-aminoacylation [3] | self-aminoacylation [4] | self-aminoacylation [5] | self-aminoacylation [6]
AUUACCACGGUCAUCGAGUGA [Fam2.1 aminoacylation ribozyme variant] | 3.66 | 5.96 | 3.48 | 6.51 | 8.11 | 38.3
AUUACCAUCGUCAUCGAGUGA [Fam2.1 aminoacylation ribozyme variant] | 2.32 | 3.6 | 2.21 | 3.19 | 3.53 | 5.68
AUUACCAUGGUCAUCGAGUGA [Fam2.1 aminoacylation ribozyme variant] | 4.75 | 9.28 | 4.49 | 8.61 | 10.7 | 12
AUUACCAUGGUCUUCGAGUGA [Fam2.1 aminoacylation ribozyme variant] | 3.35 | 6.61 | 3.56 | 5.47 | 7.3 | 28
AUUACCAUGGUGAUCGAGUGA [Fam2.1 aminoacylation ribozyme variant] | 2.4 | 4.04 | 2.33 | 3.59 | 4.4 | 14.7
AUUACCCAAGUCAUCGAGUGA [Fam2.1 aminoacylation ribozyme variant] | 4.46 | 9.5 | 4.5 | 8.57 | 9.59 | 42.4
AUUACCCAGAUCAUCGAGUGA [Fam2.1 aminoacylation ribozyme variant] | 2.99 | 5 | 3.1 | 5.55 | 7.37 | 15.2
AUUACCCAGGUAAUCGAGUGA [Fam2.1 aminoacylation ribozyme variant] | 3.56 | 8.05 | 3.26 | 7.57 | 9.28 | 44.6
AUUACCCAGGUCAUCGAUUGA [Fam2.1 aminoacylation ribozyme variant] | 0.759 | 0.826 | 0.872 | 0.825 | 0.511 | 0.642
AUUACCCAGGUCAUCUAGUGA [Fam2.1 aminoacylation ribozyme variant] | 5.97 | 9.76 | 4.62 | 10.7 | 12.2 | 59.3
AUUACCCAGGUCUUCGAGUGA [Fam2.1 aminoacylation ribozyme variant] | 3.61 | 6.86 | 3.65 | 5.69 | 8.2 | 39.3
AUUACCCAGGUGAUCGAGUGA [Fam2.1 aminoacylation ribozyme variant] | 2.33 | 4.3 | 2.39 | 4.68 | 6.02 | 29.3
AUUACCCCGAUCAUCGAGUGA [Fam2.1 aminoacylation ribozyme variant] | 3.77 | 7.03 | 3.39 | 7.24 | 7.71 | 27.4
AUUACCCCGGGCAUCGAGUGA [Fam2.1 aminoacylation ribozyme variant] | 4.03 | 8.03 | 3.78 | 5.45 | 8.11 | 39.4
AUUACCCCGGUCAUCGAGUGA [Fam2.1 aminoacylation ribozyme variant] | 3.2 | 5.4 | 2.93 | 5.35 | 6.34 | 27.9
AUUACCCCGGUCAUCGAGUUA [Fam2.1 aminoacylation ribozyme variant] | 0.938 | 1.16 | 1.17 | 1.41 | 1.01 | 1.74
AUUACCCCGGUCAUCUAGUGA [Fam2.1 aminoacylation ribozyme variant] | 3.96 | 8.24 | 4.31 | 7.8 | 8.95 | 47.1
AUUACCCCGGUCAUGGAGUGA [Fam2.1 aminoacylation ribozyme variant] | 3.07 | 5.28 | 2.92 | 4.97 | 6.2 | 22.6
AUUACCCGGGACAUCGAGUGA [Fam2.1 aminoacylation ribozyme variant] | 5.01 | 11.2 | 4.52 | 10.5 | 12.3 | 80.3
AUUACCCGGGCCAUCGAGUGA [Fam2.1 aminoacylation ribozyme variant] | 5.47 | 10.1 | 4.18 | 8.49 | 8.23 | 41.7
AUUACCCGGGUCAUCCAGUGA [Fam2.1 aminoacylation ribozyme variant] | 3.05 | 4.86 | 3.39 | 4.59 | 5.93 | 28.6
AUUACCCGGGUCAUCGAGCGA [Fam2.1 aminoacylation ribozyme variant] | 2.18 | 2.22 | 2.08 | 1.97 | 1.55 | 1.09
AUUACCCGGGUCAUCGAGUGA [Fam2.1 aminoacylation ribozyme variant] | 3.85 | 7.1 | 3.57 | 6.91 | 7.86 | 44.9
AUUACCCGGGUCAUCGGGUGA [Fam2.1 aminoacylation ribozyme variant] | 7.9 | 14.7 | 6.62 | 13.9 | 12.4 | 132
AUUACCCGGGUCAUCGUGUGA [Fam2.1 aminoacylation ribozyme variant] | 3.17 | 5.65 | 2.6 | 4.88 | 5.65 | 39
